Laboratory results published in patent US20200308223A1 (IMMUNWORK, published 2020).

Molecular target: T1, human CD19 (human, UniProt P15391 20-556)
T1 construct: whole, on cells; also called CD19 on Raji cells; CD19 on Ramos cells
T1 sequence (looked up): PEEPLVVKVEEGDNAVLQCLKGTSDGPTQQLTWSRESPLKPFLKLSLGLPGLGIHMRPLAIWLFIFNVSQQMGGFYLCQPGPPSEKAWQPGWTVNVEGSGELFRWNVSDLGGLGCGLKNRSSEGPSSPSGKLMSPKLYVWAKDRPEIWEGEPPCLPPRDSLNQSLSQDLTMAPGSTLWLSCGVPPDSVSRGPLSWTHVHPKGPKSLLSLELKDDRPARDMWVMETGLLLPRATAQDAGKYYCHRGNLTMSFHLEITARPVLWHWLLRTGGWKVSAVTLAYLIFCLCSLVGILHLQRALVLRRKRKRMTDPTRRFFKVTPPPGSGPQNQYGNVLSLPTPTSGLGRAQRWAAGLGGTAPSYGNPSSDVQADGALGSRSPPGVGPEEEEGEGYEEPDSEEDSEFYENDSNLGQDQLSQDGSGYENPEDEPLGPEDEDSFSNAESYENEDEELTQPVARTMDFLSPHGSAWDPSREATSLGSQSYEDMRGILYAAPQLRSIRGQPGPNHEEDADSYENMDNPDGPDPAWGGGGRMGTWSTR
Assay: flow cytometry (FACS) on CD19-expressing Raji cells, 0.001 µg/ml construct, FITC goat anti-human IgG.Fc detection
Method: The assay was performed by incubating 1×10⁶CD19-expressing Raji cells with 0.001 μg/ml of each construct in PBS, 1% BSA on ice for 30 minutes, using anti-CD19 antibody (RB4v1.2), (scFv α CD19)-Fc-MBM-1 X 2 DOTA bundles and (scFv α CD19)-Fc-MBM-3 X 2 DOTA bundles as positive controls. The anti-HER2 antibody (trastuzumab) was used as a negative control. The staining of cells was analyzed by FACS (FACSCanto II; BD Biosciences) using FITC-conjugated goat anti-human IgG.Fc (diluted 1:200 in PBS/BSA) (Caltag, Buckingham, UK) at 4° C. for 20 minutes in the dark.

B1: stabilized (scFv α CD19)-Fc-MBM-3 X 2 DOTA bundles (Fc fusion)
chain: EIVLTQSPAIMSASPGERVTMTCSASSGVNYMHWYQQKPGTSPRRWIYDTSKLASGVPARFSGSGSGTDYSLTISSMEPEDAATYYCHQRGSYTFGGGTKLEIKRGSTSGSGKPGSGEGSTKGQVQLVQPGAEVVKPGASVKLSCKTSGYTFTSNWMHWVKQAPGQGLEWIGEIDPSDSYTNYNQNFQGKAKLTVDKSTSTAYMEVSSLRSDDTAVYYCARGSNPYYYAMDYWGQGTSVTVSSGGGASDKTHTCPPCPAPELLGGPSVFLFPPKPKDTLMISRTPEVTCVVVDVSHEDPEVKFNWYVDGVEVHNAKTKPREEQYNSTYRVVSVLTVLHQDWLNGKDYKCKVSNKALPAPIEKTISKAKGQPREPQVYTLPPSRDELTRNQVSLTCLVKGFYPSDIAVEWESNGQPENNYKTTPPVLDSDGSFFLYSKLTVDKSRWQQGNVFSCSVMHEALHNHYTQKSLSLSPGGGGGCGGHA
modifications: cysteine residue of the C-terminal metal binding motif GCGGHA conjugated with one Mal-Peptide 2-DOTA bundle (three DOTA on a maleimido-ethyl peptide core)
notes: also called recombinant 2-chain (scFv α CD19)-Fc-MBM-3 X 2 DOTA bundles; 2-chain (VL-VH scFv α CD19)-Fc-MBM-3 conjugated with two DOTA bundles
  binding result: binds
